According to the supplement of paper PMC7125110:
± gives the standard error. Variants at the floor of the assay were thinned out.

B1: glmS ribozyme (parent)
chain: AUAAAAGCGCCAGAACUACAGAAAUGUAGUUGACGAGGAGGAGGUUUAUCGAAUUUUCGGCGGAUGCCUCCAAA

Assays:
Conditions in all cases: with glucosamine-6-phosphate
[1] = variants of: B1; test: self-cleavage kobs at 40 uM GlcN6P; higher = faster cleavage; RNA array
Summary of the method: (§1)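 In situ transcription by E. coli RNA polymerase produced barcoded ribozyme variants on sequenced MiSeq chips, and a hybridised Cy3 probe tracked them at 37 °C. Glucosamine-6-phosphate was flowed in at 40 μM to 10 mM in HEPES/KCl/Mg(OAc)2 buffer. kcat and KM were taken from weighted Michaelis–Menten fits of kobs values from exponential decay fits.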

[2] = variants of: B1; test: self-cleavage kobs at 640 uM GlcN6P; higher = faster cleavage; RNA array
Summary of the method: as §1

[3] = variants of: B1; test: self-cleavage kobs at 2500 uM GlcN6P; higher = faster cleavage; RNA array
Summary of the method: as §1

[4] = variants of: B1; test: self-cleavage kobs at 10000 uM GlcN6P; higher = faster cleavage; RNA array
Summary of the method: as §1

[5] = variants of: B1; test: self-cleavage kobs at 160 uM GlcN6P; higher = faster cleavage; RNA array
Summary of the method: as §1

Variant	self-cleavage kobs at 40 uM GlcN6P [1]	self-cleavage kobs at 640 uM GlcN6P [2]	self-cleavage kobs at 2500 uM GlcN6P [3]	self-cleavage kobs at 10000 uM GlcN6P [4]	self-cleavage kobs at 160 uM GlcN6P [5]
C10U G44U	< 1e-05 s⁻¹	< 1e-05 s⁻¹	< 1e-05 s⁻¹	< 1e-05 s⁻¹	–
C10U A12C A53C	< 1e-05 s⁻¹	–	–	–	–
C11G G32A	< 1e-05 s⁻¹	< 1e-05 s⁻¹	–	< 1e-05 s⁻¹	< 1e-05 s⁻¹
C10G U45G	< 1e-05 s⁻¹	< 1e-05 s⁻¹	< 1e-05 s⁻¹	< 1e-05 s⁻¹	< 1e-05 s⁻¹
C10G U49G G60C	< 1e-05 s⁻¹	< 1e-05 s⁻¹	–	–	–
C10G C50A	< 1e-05 s⁻¹	< 1e-05 s⁻¹	–	–	–
C10U G63U A64U	< 1e-05 s⁻¹	–	–	–	–
C10A C34A G38U	< 1e-05 s⁻¹	–	–	–	–
C11A U31A A39G U55C G66U	< 1e-05 s⁻¹	–	–	< 1e-05 s⁻¹	< 1e-05 s⁻¹
C10U A14C C61U	< 1e-05 s⁻¹	–	–	< 1e-05 s⁻¹	–
C11A G29U G59U	0.000103 ± 2.9e-05 s⁻¹	–	–	–	–
C11A A15C G43A	< 1e-05 s⁻¹	–	–	< 1e-05 s⁻¹	–
C10U G37C G66A	< 1e-05 s⁻¹	–	–	–	–
C11G G37C	< 1e-05 s⁻¹	–	–	< 1e-05 s⁻¹	–
G9U A14C	< 1e-05 s⁻¹	< 1e-05 s⁻¹	–	–	< 1e-05 s⁻¹
G9U A36C G38C	< 1e-05 s⁻¹	–	–	< 1e-05 s⁻¹	–
C10U A39G C71A	< 1e-05 s⁻¹	–	–	–	–
C10U U47A G62U A64U U69A	< 1e-05 s⁻¹	–	–	–	–
C11A C50G G62U	0.000115 ± 2.8e-05 s⁻¹	–	–	0.000116 ± 2.6e-05 s⁻¹	–
C10A G13A U30C G40A	< 1e-05 s⁻¹	–	–	–	–
G9C U30A U46C U56A	< 1e-05 s⁻¹	–	–	< 1e-05 s⁻¹	–
C11G G43C	< 1e-05 s⁻¹	< 1e-05 s⁻¹	–	< 1e-05 s⁻¹	< 1e-05 s⁻¹
C11A C34A U47G	< 1e-05 s⁻¹	–	< 1e-05 s⁻¹	–	–
G9U G44U	< 1e-05 s⁻¹	< 1e-05 s⁻¹	< 1e-05 s⁻¹	< 1e-05 s⁻¹	–
G9U G44C A64C	< 1e-05 s⁻¹	–	–	< 1e-05 s⁻¹	–
C10A C11U	< 1e-05 s⁻¹	–	< 1e-05 s⁻¹	< 1e-05 s⁻¹	< 1e-05 s⁻¹

Variant	self-cleavage kobs at 40 uM GlcN6P [1]	self-cleavage kobs at 640 uM GlcN6P [2]	self-cleavage kobs at 2500 uM GlcN6P [3]	self-cleavage kobs at 10000 uM GlcN6P [4]	self-cleavage kobs at 160 uM GlcN6P [5]
C10A C11A	< 1e-05 s⁻¹	< 1e-05 s⁻¹	–	< 1e-05 s⁻¹	–
C10U A12G U46A U47G U49G	< 1e-05 s⁻¹	–	–	–	–
C10A C16A G51U C68G C71A	7.7e-05 ± 2e-05 s⁻¹	0.00052 ± 0.00016 s⁻¹	–	8.53e-05 ± 1.6e-05 s⁻¹	–
C10G U57G	< 1e-05 s⁻¹	< 1e-05 s⁻¹	< 1e-05 s⁻¹	< 1e-05 s⁻¹	–
G9C U46C	< 1e-05 s⁻¹	< 1e-05 s⁻¹	–	< 1e-05 s⁻¹	–
C10A U30G C71U	< 1e-05 s⁻¹	–	–	< 1e-05 s⁻¹	–
G9C G41U C50A	< 1e-05 s⁻¹	–	–	–	–
C11G A33G G40C	< 1e-05 s⁻¹	–	–	< 1e-05 s⁻¹	–
C10A G38U G59A G60A G62A A64U G66C C68G	0.000187 ± 6.6e-05 s⁻¹	–	–	–	–
C10A U49A C61U G62U	< 1e-05 s⁻¹	–	–	–	–
G9C G63A A64C C70G	< 1e-05 s⁻¹	–	–	< 1e-05 s⁻¹	–
C10A U31G A42U C50G U56A G60U C68G C71A	4.77e-05 ± 2e-05 s⁻¹	0.00298 ± 0.00084 s⁻¹	–	–	–
C10G C50U U54G U56G	< 1e-05 s⁻¹	–	–	< 1e-05 s⁻¹	–
C10U C11G C16A C50G	9.19e-05 ± 2.5e-05 s⁻¹	0.000376 ± 9.9e-05 s⁻¹	0.000168 ± 3.4e-05 s⁻¹	8e-05 ± 2.2e-05 s⁻¹	–
C11G C16A A48C	< 1e-05 s⁻¹	–	–	< 1e-05 s⁻¹	–
C10A U31G A48G C67G	< 1e-05 s⁻¹	–	–	< 1e-05 s⁻¹	–
C11G A48U	< 1e-05 s⁻¹	< 1e-05 s⁻¹	–	< 1e-05 s⁻¹	< 1e-05 s⁻¹
G9U C68A	< 1e-05 s⁻¹	–	< 1e-05 s⁻¹	< 1e-05 s⁻¹	< 1e-05 s⁻¹
C11G G41A	< 1e-05 s⁻¹	< 1e-05 s⁻¹	< 1e-05 s⁻¹	< 1e-05 s⁻¹	–
G9U G40U G44C G60U	< 1e-05 s⁻¹	–	–	< 1e-05 s⁻¹	–
C10A U57C	< 1e-05 s⁻¹	–	–	–	< 1e-05 s⁻¹
C10U A15C C34A A36G G43C U49C	< 1e-05 s⁻¹	–	< 1e-05 s⁻¹	< 1e-05 s⁻¹	< 1e-05 s⁻¹
C11G A36G U49A U65C C70U	< 1e-05 s⁻¹	–	–	< 1e-05 s⁻¹	–
C10U A52U U65A	< 1e-05 s⁻¹	< 1e-05 s⁻¹	< 1e-05 s⁻¹	< 1e-05 s⁻¹	–
G9U G62C	< 1e-05 s⁻¹	–	–	< 1e-05 s⁻¹	< 1e-05 s⁻¹
C11A C61U C70U	< 1e-05 s⁻¹	–	–	< 1e-05 s⁻¹	–

Variant	self-cleavage kobs at 40 uM GlcN6P [1]	self-cleavage kobs at 640 uM GlcN6P [2]	self-cleavage kobs at 2500 uM GlcN6P [3]	self-cleavage kobs at 10000 uM GlcN6P [4]	self-cleavage kobs at 160 uM GlcN6P [5]
C10A C11U A36U C70U C71G	0.000371 ± 9.5e-05 s⁻¹	0.000527 ± 0.00015 s⁻¹	–	0.000335 ± 6.3e-05 s⁻¹	–
C10A G13C	< 1e-05 s⁻¹	–	< 1e-05 s⁻¹	< 1e-05 s⁻¹	< 1e-05 s⁻¹
C11A G44U U54C	< 1e-05 s⁻¹	–	< 1e-05 s⁻¹	–	–
C10A C11G G60U C61G	< 1e-05 s⁻¹	–	–	< 1e-05 s⁻¹	–
C10U C68A C71U	< 1e-05 s⁻¹	–	–	–	–
G9U C34U	< 1e-05 s⁻¹	< 1e-05 s⁻¹	< 1e-05 s⁻¹	< 1e-05 s⁻¹	–
G9U C34A	< 1e-05 s⁻¹	< 1e-05 s⁻¹	–	< 1e-05 s⁻¹	< 1e-05 s⁻¹
C10G U56G C68A	< 1e-05 s⁻¹	–	–	–	–
C10G U31C G35U	< 1e-05 s⁻¹	–	–	< 1e-05 s⁻¹	–
G9U U30C G43A	< 1e-05 s⁻¹	< 1e-05 s⁻¹	–	–	–
C10U A33U G35A	< 1e-05 s⁻¹	–	–	< 1e-05 s⁻¹	–
C10A C16A G41U	< 1e-05 s⁻¹	–	–	< 1e-05 s⁻¹	–
G9C G38U G63A	< 1e-05 s⁻¹	–	–	–	–
C11A C16G A36U G40A U55A U56A	< 1e-05 s⁻¹	–	–	< 1e-05 s⁻¹	–
C10G G32C A48U	< 1e-05 s⁻¹	–	–	< 1e-05 s⁻¹	–
C11A A14C G63C U69C	< 1e-05 s⁻¹	–	–	–	–
G9C G44A A52U	< 1e-05 s⁻¹	–	–	–	–
C10A A52U U56G	< 1e-05 s⁻¹	< 1e-05 s⁻¹	< 1e-05 s⁻¹	< 1e-05 s⁻¹	< 1e-05 s⁻¹
C10U U45C G63A	< 1e-05 s⁻¹	< 1e-05 s⁻¹	–	–	< 1e-05 s⁻¹
C11A G44C	< 1e-05 s⁻¹	< 1e-05 s⁻¹	< 1e-05 s⁻¹	–	< 1e-05 s⁻¹
C11A G44U	< 1e-05 s⁻¹	< 1e-05 s⁻¹	< 1e-05 s⁻¹	–	< 1e-05 s⁻¹
C11A G44A	< 1e-05 s⁻¹	< 1e-05 s⁻¹	< 1e-05 s⁻¹	< 1e-05 s⁻¹	–
C11G A53C	< 1e-05 s⁻¹	< 1e-05 s⁻¹	< 1e-05 s⁻¹	< 1e-05 s⁻¹	< 1e-05 s⁻¹
C11A U30C	< 1e-05 s⁻¹	–	4.93e-05 ± 1.8e-05 s⁻¹	–	< 1e-05 s⁻¹
C10A C16U	< 1e-05 s⁻¹	< 1e-05 s⁻¹	–	–	< 1e-05 s⁻¹
C10U U31C G32C U49A G51U G60C	< 1e-05 s⁻¹	–	–	–	–

Variant	self-cleavage kobs at 40 uM GlcN6P [1]	self-cleavage kobs at 640 uM GlcN6P [2]	self-cleavage kobs at 2500 uM GlcN6P [3]	self-cleavage kobs at 10000 uM GlcN6P [4]	self-cleavage kobs at 160 uM GlcN6P [5]
C10G G44A	< 1e-05 s⁻¹	< 1e-05 s⁻¹	–	< 1e-05 s⁻¹	< 1e-05 s⁻¹
C10A U45G	< 1e-05 s⁻¹	< 1e-05 s⁻¹	< 1e-05 s⁻¹	< 1e-05 s⁻¹	–
C10U G43C	< 1e-05 s⁻¹	< 1e-05 s⁻¹	< 1e-05 s⁻¹	< 1e-05 s⁻¹	< 1e-05 s⁻¹
C10U G37U	< 1e-05 s⁻¹	< 1e-05 s⁻¹	–	< 1e-05 s⁻¹	–
G9U G37A C67U C71G	< 1e-05 s⁻¹	–	–	–	–
C10G A53U G59A C70G	< 1e-05 s⁻¹	–	–	< 1e-05 s⁻¹	–
C10G U30A C71G	< 1e-05 s⁻¹	–	–	–	–
C10A G37U A42U C67G C68G	7.19e-05 ± 2e-05 s⁻¹	–	–	–	–
C10A G37C A42C C70A	< 1e-05 s⁻¹	–	–	–	–
C11A G35C	< 1e-05 s⁻¹	< 1e-05 s⁻¹	< 1e-05 s⁻¹	–	< 1e-05 s⁻¹
C10G G29A A48G	< 1e-05 s⁻¹	–	–	–	–
C10A A53G G60C	< 1e-05 s⁻¹	–	–	–	–
C11A C70U C71G	4.85e-05 ± 1.9e-05 s⁻¹	–	–	3.22e-05 ± 1.6e-05 s⁻¹	–
C11G A39G U45C G60A G66U	< 1e-05 s⁻¹	–	–	–	–
G9C G66U	< 1e-05 s⁻¹	< 1e-05 s⁻¹	< 1e-05 s⁻¹	< 1e-05 s⁻¹	< 1e-05 s⁻¹
C11A A12C A64C	< 1e-05 s⁻¹	–	< 1e-05 s⁻¹	< 1e-05 s⁻¹	–
G9C U31G	< 1e-05 s⁻¹	< 1e-05 s⁻¹	< 1e-05 s⁻¹	–	< 1e-05 s⁻¹
C11A G40C U54A	< 1e-05 s⁻¹	–	–	–	–
C10A G43A U45C	< 1e-05 s⁻¹	–	–	–	–
G9U C16A	< 1e-05 s⁻¹	< 1e-05 s⁻¹	< 1e-05 s⁻¹	< 1e-05 s⁻¹	< 1e-05 s⁻¹
G9C G63A	< 1e-05 s⁻¹	< 1e-05 s⁻¹	–	–	–
C10G A15U A36U G38A A53G C68G C70U	0.000148 ± 4.5e-05 s⁻¹	–	–	–	–
G9U G32A A53C U55G G63U	< 1e-05 s⁻¹	–	–	–	–
C10U G29U C34A	< 1e-05 s⁻¹	–	< 1e-05 s⁻¹	< 1e-05 s⁻¹	–
C10U A14G U55C A64G G66U	< 1e-05 s⁻¹	–	–	–	–
